Laboratory results published in PMC4409310, “Substrate Recognition and Modification by the Nosiheptide Resistance Methyltransferase” (PLoS ONE, 2015).

B1: HA-His-NHR-R135A (enzyme, Streptomyces actuosus, UniProt P52391 1-274, looked up)
chain: MTEPAIITNASDPAVQRIIDVTKHSRASIKTTLIEDTEPLMECIRAGVQFIEVYGSSGTPLDPALLDLCRQREIPVRLIDVSIVNQLFKAERKAKVFGIARVPRPARLADIAERGGDVVVLDGVKIVGNIGAIVATSLALGAAGIVLVDSDLATIADRRLLRASRGYVFSLPVVLADREEAVSFLRDNDIALMVLDTDGDLGVKDLGDRADRMALVFGSEKGGPSGLFQEASAGTVSIPMLSSTESLNVSVSVGIALHERSARNFAVRRAAAQA
notes: nosiheptide resistance methyltransferase (NHR), Streptomyces actuosus; Homodimer when alone; in the heterodimer with Flag-Trx-His-NHR one chain of each construct; also called HA-NHR-R135A; HA-R135A-NHR; source: site-directed mutagenesis of His-NHR, HA tag added by PCR; purified (Ni-NTA, gel filtration); not shown: His6, N-terminal, kept

Experiments:
[1] = target: the molecule itself; assay: native gel or EMSA; differently tagged (short and long) NHR proteins mixed at 4°C overnight, then incubated with 58 nt or 29 nt RNA (6-10 μM RNA, 2-10 μM protein) for 1 hour at 4°C in 25 mM Hepes-KOH, 25 mM NH4Cl, 5 mM MgCl2, 5 mM DTT, pH 8.0; 6% polyacrylamide native gel, SYBR Gold; dimers seen as RNA-protein complexes
HA-His-NHR-R135A = target: B1; assay: as above; details: both partners purified

Row | Binder | stoichiometry N [1] | binding result (HA-His-NHR-R135A)
1 | N-terminal hexahistidine tagged nosiheptide resistance methyltransferase (His-NHR) (enzyme, Streptomyces actuosus, UniProt P52391 1-274, looked up, nosiheptide resistance methyltransferase (NHR), Streptomyces actuosus; wild type; Homodimer when alone; in the heterodimer with Trx-NHR one chain of each construct; also called NHR(S); short, S; source: over expressed from pET-28a-NHR, purified (Ni-NTA, gel filtration); not shown: His6, N-terminal, kept) MTEPAIITNASDPAVQRIIDVTKHSRASIKTTLIEDTEPLMECIRAGVQFIEVYGSSGTPLDPALLDLCRQREIPVRLIDVSIVNQLFKAERKAKVFGIARVPRPARLADIAERGGDVVVLDGVKIVGNIGAIVRTSLALGAAGIVLVDSDLATIADRRLLRASRGYVFSLPVVLADREEAVSFLRDNDIALMVLDTDGDLGVKDLGDRADRMALVFGSEKGGPSGLFQEASAGTVSIPMLSSTESLNVSVSVGIALHERSARNFAVRRAAAQA | 2 | 
2 | thioredoxin tagged nosiheptide resistance methyltransferase (Trx-NHR) (enzyme, Streptomyces actuosus, UniProt P52391 1-274, looked up, nosiheptide resistance methyltransferase (NHR), Streptomyces actuosus; wild type; Homodimer when alone; in the heterodimer with His-NHR one chain of each construct; Named Trx-His-NHR in the methods; also called Trx-His-NHR; NHR(L); source: over expressed from pET-32M-NHR, purified (Ni-NTA, gel filtration); not shown: thioredoxin, N-terminal, kept) MTEPAIITNASDPAVQRIIDVTKHSRASIKTTLIEDTEPLMECIRAGVQFIEVYGSSGTPLDPALLDLCRQREIPVRLIDVSIVNQLFKAERKAKVFGIARVPRPARLADIAERGGDVVVLDGVKIVGNIGAIVRTSLALGAAGIVLVDSDLATIADRRLLRASRGYVFSLPVVLADREEAVSFLRDNDIALMVLDTDGDLGVKDLGDRADRMALVFGSEKGGPSGLFQEASAGTVSIPMLSSTESLNVSVSVGIALHERSARNFAVRRAAAQA | 2 | 
3 | B1 | 2 | 
4 | Flag-Trx-His-NHR (enzyme, Streptomyces actuosus, UniProt P52391 1-274, looked up, nosiheptide resistance methyltransferase (NHR), Streptomyces actuosus; wild type; Homodimer when alone; in the heterodimer with HA-His-NHR-R135A one chain of each construct; also called Flag-NHR; Flag-Trx-NHR; source: Flag tag added to Trx-His-NHR by PCR; purified (Ni-NTA, gel filtration); not shown: thioredoxin, N-terminal, kept) MTEPAIITNASDPAVQRIIDVTKHSRASIKTTLIEDTEPLMECIRAGVQFIEVYGSSGTPLDPALLDLCRQREIPVRLIDVSIVNQLFKAERKAKVFGIARVPRPARLADIAERGGDVVVLDGVKIVGNIGAIVRTSLALGAAGIVLVDSDLATIADRRLLRASRGYVFSLPVVLADREEAVSFLRDNDIALMVLDTDGDLGVKDLGDRADRMALVFGSEKGGPSGLFQEASAGTVSIPMLSSTESLNVSVSVGIALHERSARNFAVRRAAAQA | 2 | binds
